In patent US8604172B2, “Humanized antibody compositions and methods for binding lysophosphatidic acid” (Lpath, Inc., priority 2009, dated 2013):
Marks after values point to notes of the source that are not given here.

Tests used:
[1] = Competition ELISA (18:1 LPA coat), competitor 20:4 LPA; format: binding; conditions: maximum inhibition
Protocol: Many isoforms of LPA have been identified to be biologically active and it is preferable that the mAb recognize all of them to some extent to be of therapeutic relevance. The specificity of the anti-LPA mAbs was evaluated utilizing a competition assay in which the competitor lipid was added to the antibody-immobilized lipid mixture.
Competition ELISA assays were performed with the anti-LPA mAbs to assess their specificity. 18:1 LPA was captured on ELISA plates. Each competitor lipid (up to 10 uM) was serially diluted in BSA (1 mg/ml)-PBS and then incubated with the mAbs (3 nM). Mixtures were then transferred to LPA coated wells and the amount of bound antibody was measured with a secondary antibody. Data are normalized to maximum signal (A450) and are expressed as percent inhibition. Assays were performed in triplicate. IC50: Half maximum inhibition concentration; MI: Maximum inhibition (% of binding in the absence of inhibitor); - - -: not estimated because of weak inhibition. A high inhibition result indicates recognition of the competitor lipid by the antibody.

[2] = Competition ELISA specificity, competitor LPC; format: binding; conditions: maximum inhibition, n = 3
Protocol: (§1) The specificity of the anti-LPA mAbs was assessed for their binding to LPA related biolipids such as distearoyl-phosphatidic acid, lysophosphatidylcholine, S1P, ceramide and ceramide-1-phosphate.

[3] = test system: IL-8 release in SKOV3 cells; assay: LPA-induced IL-8 release in SKOV3 cells; format: cell-based, human
Protocol: Anti-LPA antibodies inhibit the LPA-dependant release of human CXCL8/IL-8 in conditioned media of SKOV3 ovarian cells. SKOV3 cells (Lot No 4255558, passage 14) were harvested with 2 ml of 1× Trypsin EDTA (Mediatech Inc, Cat. No 25-053-CV) and resuspended in 8 ml of complete medium (10% FBS, Mediatech Inc. Cat. no 35-011-CV). The cells were centrifuged for 5 min ([…]) and re-suspended in 5 ml of complete medium. Cells were counted in duplicate with 0.4% Trypan blue (10 ul cells plus 90 ul Trypan blue, Invitrogen, Cat. No 15250-061) using a hemocytometer. In a 96-well plate, 1×10^5 cells per well were seeded (final volume 100 ul/well). The cells were allowed to attach and form a confluent monolayer by incubating overnight at 37° C. On the following day, cells were gently washed two times with minimum media (1 mg/ml BSA in McCoy's medium with L-glutamine, Mediatech, Cat. No 10-050-CV). The media was adjusted to 1% penicillin/streptomycin (Mediatech, Cat. No 30-002 CI) and 2.2 g/L sodium-bicarbonate (Mediatech, Cat. No 25-035-CI). Next, the cells were serum-starved at 37° C. for exactly 24 h, followed by cytokine stimulation with 1 uM C18:1 LPA (Avanti, Cat. No 857130) dissolved in 1 mg/ml BSA/PBS (Calbiochem, Cat. No 126575) which was pre-incubated in presence or absence of humanized LPA antibody LT3015 (150, 300 or 600 ug/mL) for one hour. Treatments were then added to the cells. After 22 h of cytokine stimulation, the cells were centrifuged for 5 min (13,500 rpm) at 4° C. and the supernatants (cell-conditioned media) were collected. The CXCL8/IL-8 levels in each supernatant were measured using the Quantikine human CXCL8/IL-8 ELISA kit according to vendor instructions (R&D Systems, Minneapolis Minn., Cat. No D8000C). The IL-6 levels were measured by ELISA using the Quantikine human IL-6 immunoassay kit (R&D systems, Cat. No. D6050). Data were analyzed by one-way ANOVA followed by Bonferroni's post test and expressed as human IL-8 or human IL-6 fold increase.

[4] = test system: SKOV3 cell invasion; assay: SKOV3 invasion assay; format: cell-based, human; conditions: Lpathomab (15 mg/mL); 2 μM 14:0 LPA; n = 2
[5] = Competition ELISA specificity, competitor C1P; format: binding; conditions: maximum inhibition, n = 3
Protocol: as §1

[6] = test system: SKOV3 cells; assay: Taxol-induced apoptosis / caspase activity in SKOV3 cells; format: cell-based, human
Protocol: The ability of LPA to protect ovarian tumor cells against apoptosis when exposed to clinically-relevant levels of the chemotherapeutic agent, paclitaxel (Taxol) was investigated. […] LPA protected SKOV3 cells from Taxol-induced apoptosis. Apoptosis was assayed by measurement of the caspase activity as recommended by the manufacturer (Promega). As anticipated, LPA protected most of the cancer cell lines tested from taxol-induced cell death. […] Moreover, the anti-LPA antibody was able to remove the protection provided by serum. Serum is estimated to contain about 5-20 uM LPA. […] Taxol-induced caspase activation was enhanced by the addition of LT3000 to the culture medium.

[7] = Direct binding ELISA of anti-LPA mAbs to 12:0 LPA
Protocol: The binding of 6 anti-LPA mAbs (B3, B7, B58, A63, B3A6, D22) to 12:0 and 18:1 LPA (0.1 uM) was measured by ELISA. EC50 values were calculated from titration curves using 6 increasing concentrations of purified mAbs (0 to 0.4 ug/ml). EC50 represents the effective antibody concentration with 50% of the maximum binding. Max denotes the maximal binding (expressed as OD450).

[8] = Competition ELISA specificity, competitor DSPA; format: binding; conditions: maximum inhibition, n = 3
Protocol: as §1

[9] = test system: selected human cancer cell lines; assay: LPA-induced cancer cell proliferation; format: cell-based; conditions: addition of anti-LPA mAb
Protocol: LPA is a potent growth factor supporting cell survival and proliferation by stimulation of Gi, Gq and G12/13 via GPCR-receptors and activation of downstream signaling events. Cell lines were tested for their proliferative response to LPA ([…]). Cell proliferation was assayed by using the cell proliferation assay kit from Chemicon (Temecula Calif.) (Panc-1) and the Cell-Blue titer from Pierce (Caki-1). Each data point is the mean of three independent experiments. […] Even though tumor-derived cells normally have high basal levels of proliferation, LPA appears to further augment proliferation in most tumor cell lines. Anti-LPA mAbs (B7 and B58) were assessed for the ability to inhibit LPA-induced proliferation in selected human cancer cell lines.

B1: LT3000: Murine anti-LPA monoclonal antibody clone B7, IgG1k, renamed Lpathomab, also known as LT3000; hybridoma 504B7.1, ATCC PTA-8420 (antibody, V domains shown)
VH: QVQLQQSGAELVRPGTSVKVSCKASGYGFINYLIEWIKQRPGQGLEWIGLINPGSDYTNYNENFKGKATLTADKSSSTAYMHLSSLTSEDSAVYFCARRFGYYGSGNYFDYWGQGTTLTVSS
VL: DVVMTQTPLSLPVSLGDQASISCTSGQSLVHINGNTYLHWYLQKPGQSPKLLIYKVSNLFSGVPDRFSGSGSGTDFTLKISRVEAEDLGVYFCSQSTHFPFTFGTGTKLEIK
For B1, the “MI, 20:4 LPA” value [1] was 67%, the “MI (%), LPC” value [2] was 0% and the “IL-8 Release, % Inhibition (over LPA taken as 100)” value ([3]; Lpathomab 300 μg/mL, 1 μM 18:1 LPA, n = 3) was 20%. For the same molecule, the “IL-8 release from ovarian cancer cells” value ([3]; in vitro) was “reduced IL-8 release from ovarian cancer cells in a concentration-dependent manner”, the “Invasion, % Inhibition (over LPA taken as 100)” value [4] was 95* % and the “MI (%), C1P” value [5] was 1.0%. For the same molecule, the “LPA protection from death induced by chemotherapeutic agent (Taxol)” value ([6]; LPA responsive cells, 24 h) was “blocked the ability of LPA to protect cells from death”, the “Apoptosis, % Induction (over LPA + TAXOL taken as 100)” value ([6]; Lpathomab 150 μg/mL, 1 μM Taxol, 1 μM 18:1 LPA, n = 1) was 79% and the Taxol-induced caspase activation ([6]; SKOV3, serum-containing culture medium) was “enhanced”. The EC50 ([7]; 12:0 LPA 0.1 uM, mAb 0 to 0.4 ug/ml) was 0.413 nM, the “Max (OD450), 12:0 LPA” value ([7]; maximal binding) was 1.395 OD450 and the “MI (%), DSPA” value [8] was 0%. For the same molecule, the “LPA-induced increase in proliferation” value [9] was “mitigated”.
